From patent US20200024330A1

Columns and labels:
Experiment in all cases: cell-based or functional assay
[1] = target: HIV-1 Env of isolate MGRM-AE-007 (HIV-1)
[2] = target: HIV-1 Env of isolate MGRM-AE-006 (HIV-1)
[3] = target: HIV-1 Env of isolate MGRM-AG-005 (HIV-1)
[4] = target: HIV-1 Env of isolate MGRM-AG-001 (HIV-1)
[5] = target: HIV-1 NL43 envelope glycoprotein (Env) on pseudovirus (HIV-1)
[6] = target: HIV-1 Env of isolate MGRM-AG-012 (HIV-1)
[7] = target: HIV-1 Env of isolate MGRM-AG-003 (HIV-1)
[8] = target: HIV-1 Env of isolate MGRM-G-001 (HIV-1)
[9] = target: HIV-1 Env of isolate MGRM-Chronic-B-018 (HIV-1)
[10] = target: HIV-1 Env of isolate JRFL (HIV-1)
[11] = target: HIV-1 Env of isolate MGRM-AG-013 (HIV-1)
[12] = target: HIV-1 Env of isolate CMU02 (HIV-1)
[13] = target: HIV-1 92BR020 envelope glycoprotein (Env) on pseudovirus (HIV-1)
[14] = target: HIV-1 Env of isolate MGRM-AE-008 (HIV-1)
[15] = target: HIV-1 Env of isolate MGRM-Chronic-B-010 (HIV-1)
[16] = target: HIV-1 Env of pseudovirus MGRM-Chronic-B-004, clade B (HIV-1)
[17] = target: HIV-1 LAVIC_18 Env (HIV-1)
[18] = target: HIV-1 Env of isolate MGRM-AG-008 (HIV-1)
[19] = target: HIV-1 92TH021 envelope glycoprotein (Env) on pseudovirus (HIV-1)
[20] = target: HIV-1 Env of isolate MGRM-AG-009 (HIV-1)
[21] = target: HIV-1 Env of isolate MGRM-Chronic-B-020 (HIV-1)
[22] = target: HIV-1 Env of isolate MGRM-AG-011 (HIV-1)
[23] = target: HIV-1 Env of isolate MGRM-Chronic-B-012 (HIV-1)
[24] = target: aMLV envelope (negative control pseudovirus)
[25] = target: HIV-1 Env of isolate MGRM-AE-005 (HIV-1)
[26] = target: HIV-1 Env of isolate MGRM-Chronic-B-023 (HIV-1)
[27] = target: HIV-1 Env of isolate MGRM-Chronic-B-017 (HIV-1)
[28] = target: HIV-1 Env of isolate MGRM-Chronic-B-024 (HIV-1)
[29] = target: HIV-1 Env of isolate MGRM-AG-002 (HIV-1)
[30] = target: HIV-1 Env of isolate MGRM-G-009 (HIV-1)
[31] = target: HIV-1 92UG024 envelope glycoprotein (Env) on pseudovirus (HIV-1)
[32] = target: HIV-1 Env of isolate MGRM-AG-006 (HIV-1)
[33] = target: HIV-1 Env of isolate MGRM-G-004 (HIV-1)
[34] = target: HIV-1 Env of isolate MGRM-G-006 (HIV-1)
[35] = target: HIV-1 Env of isolate MGRM-AE-004 (HIV-1)
[36] = target: HIV-1 Env of isolate MGRM-Chronic-B-011 (HIV-1)
[37] = target: HIV-1 92RW020 envelope glycoprotein (Env) on pseudovirus (HIV-1)

Substance	IC50 (µg/ml), pseudovirus neutralization [1]	IC50 (µg/ml), pseudovirus neutralization [2]	IC50 (µg/ml), pseudovirus neutralization [3]	IC50 (µg/ml), pseudovirus neutralization [4]	IC50 (µg/ml), pseudovirus neutralization [6]	IC50 (µg/ml), pseudovirus neutralization [7]	IC50 (µg/ml), pseudovirus neutralization [8]	IC50 (µg/ml), pseudovirus neutralization [9]	IC50 (µg/ml), pseudovirus neutralization [10]	IC50 (µg/ml), pseudovirus neutralization [11]	IC50 (µg/ml), pseudovirus neutralization [12]	IC50 (µg/ml), pseudovirus neutralization [14]	IC50 (µg/ml), pseudovirus neutralization [15]	IC50 (µg/ml), pseudovirus neutralization [16]	IC50 [17]	IC50 (µg/ml), pseudovirus neutralization [18]	IC50 (µg/ml), pseudovirus neutralization [20]	IC50 (µg/ml), pseudovirus neutralization [21]	IC50 (µg/ml), pseudovirus neutralization [22]	IC50 (µg/ml), pseudovirus neutralization [23]	further results
b12 (antibody)	> 50 µg/mL	> 50 µg/mL	> 50 µg/mL	11.9 µg/mL	10.4 µg/mL	> 50 µg/mL	> 50 µg/mL	0.66 µg/mL	0.02 µg/mL	> 50 µg/mL	29.3 µg/mL	> 50 µg/mL	> 50 µg/mL	0.26 µg/mL	> 50 µg/mL	> 50 µg/mL	> 50 µg/mL	6.16 µg/mL	> 50 µg/mL	> 50 µg/mL	IC90 (pseudovirus neutralization) [5]: 0.28 µg/mL; IC90 (pseudovirus neutralization) [13]: > 50 µg/mL; IC90 (pseudovirus neutralization) [19]: > 50 µg/mL; IC50 (µg/ml), pseudovirus neutralization [24]: > 50 µg/mL; IC50 (µg/ml), pseudovirus neutralization [25]: 0.63 µg/mL; IC50 (µg/ml), pseudovirus neutralization [26]: > 50 µg/mL; IC50 (µg/ml), pseudovirus neutralization [27]: 2.59 µg/mL; IC50 (µg/ml), pseudovirus neutralization [28]: > 50 µg/mL; IC50 (µg/ml), pseudovirus neutralization [29]: 0.89 µg/mL; IC50 (µg/ml), pseudovirus neutralization [30]: > 50 µg/mL; IC90 (pseudovirus neutralization) [31]: > 50 µg/mL; IC50 (µg/ml), pseudovirus neutralization [32]: > 50 µg/mL; IC50 (µg/ml), pseudovirus neutralization [33]: > 50 µg/mL; IC50 (µg/ml), pseudovirus neutralization [34]: > 50 µg/mL; IC50 (µg/ml), pseudovirus neutralization [35]: > 50 µg/mL; IC50 (µg/ml), pseudovirus neutralization [36]: 2.11 µg/mL; IC90 (pseudovirus neutralization) [37]: > 50 µg/mL
1495_C14 (PGC14) (antibody)	> 50 µg/mL	> 50 µg/mL	> 50 µg/mL	> 50 µg/mL	> 50 µg/mL	> 50 µg/mL	> 50 µg/mL	> 50 µg/mL	> 50 µg/mL	> 50 µg/mL	> 50 µg/mL	> 50 µg/mL	27 µg/mL	> 50 µg/mL	> 50 µg/mL	45 µg/mL	> 50 µg/mL	> 50 µg/mL	> 50 µg/mL	> 50 µg/mL	IC50 (µg/ml), pseudovirus neutralization [24]: > 50 µg/mL; IC50 (µg/ml), pseudovirus neutralization [25]: > 50 µg/mL; IC50 (µg/ml), pseudovirus neutralization [26]: > 50 µg/mL; IC50 (µg/ml), pseudovirus neutralization [27]: > 50 µg/mL; IC50 (µg/ml), pseudovirus neutralization [28]: > 50 µg/mL; IC50 (µg/ml), pseudovirus neutralization [29]: > 50 µg/mL; IC50 (µg/ml), pseudovirus neutralization [30]: > 50 µg/mL; IC50 (µg/ml), pseudovirus neutralization [32]: > 50 µg/mL; IC50 (µg/ml), pseudovirus neutralization [33]: > 50 µg/mL; IC50 (µg/ml), pseudovirus neutralization [34]: > 50 µg/mL; IC50 (µg/ml), pseudovirus neutralization [35]: > 50 µg/mL; IC50 (µg/ml), pseudovirus neutralization [36]: > 50 µg/mL
